According to patent US20220325265A1, “GLUCOCEREBROSIDASE MUTANTS” (Hoffmann-la Roche Inc., priority 2019, published 2022):
Positions count from the first letter of the chain named. Names and notes keep the numbering of the source. Values joined by “and” are separate entries in the source; they are usually repeats but may differ in a detail not shown here. Identical values can stand only once.

B1: R495HS2: hGCase based on the Cerezyme sequence (R495H) but produced in S2 cells, His8-tagged; Seq. Id. No. 1 (protein, listed as Homo sapiens)
chain: ARPCIPKSFGYSSVVCVCNATYCDSFDPPTFPALGTFSRYESTRSGRRMELSMGPIQANHTGTGLLLTLQPEQKFQKVKGFGGAMTDAAALNILALSPPAQNLLLKSYFSEEGIGYNIIRVPMASCDFSIRTYTYADTPDDFQLHNFSLPEEDTKLKIPLIHRALQLAQRPVSLLASPWTSPTWLKTNGAVNGKGSLKGQPGDIYHQTWARYFVKFLDAYAEHKLQFWAVTAENEPSAGLLSGYPFQCLGFTPEHQRDFIARDLGPTLANSTHHNVRLLMLDDQRLLLPHWAKVVLTDPEAAKYVHGIAVHWYLDFLAPAKATLGETHRLFPNTMLFASEACVGSKFWEQSVRLGSWDRGMQYSHSIITNLLYHVVGWTDWNLALNPEGGPNWVRNFVDSPIIVDITKDTFYKQPMFYHLGHFSKFIPEGSQRVGLVASQKNDLDAVALMHPDGSAVVVVLNRSSKDVPLTIKDPAVGFLETISPGYSIHTYLWHRQ
modifications: His8 tag
B2: L34Q: recombinant human β-glucocerebrosidase variant R495H/L34Q, S2 cells; Seq. Id. No. 6 (protein, listed as Homo sapiens)
chain: B1 chain with L34Q
notes: recombinant human β-glucocerebrosidase variant R495H/L34Q, S2 cells; Id; No. 6
B3: K321N/H145L: Amicus double mutant hGCase R495H/K321N/H145L produced in S2 cells; Seq. Id. No. 3 (protein, listed as Homo sapiens)
chain: B1 chain with H145L, K321N
notes: Amicus double mutant hGCase R495H/K321N/H145L produced in S2 cells; Id; No. 3
B4: imiglucerase (protein, UniProt P04062 40-536, looked up, variant R495H)
Lysosomal acid …: B1 chain
modifications: imiglucerase; CHO-produced
notes: Commercially available Cerezyme (imiglucerase, Genzyme), hGCase R495H produced in CHO cells
B5: F31Y: recombinant human β-glucocerebrosidase variant R495H/F31Y, S2 cells; Seq. Id. No. 5 (protein, listed as Homo sapiens)
chain: B1 chain with F31Y
notes: recombinant human β-glucocerebrosidase variant R495H/F31Y, S2 cells; Id; No. 5
B6: K321N: Amicus single mutant hGCase R495H/K321N produced in S2 cells; Seq. Id. No. 2 (protein, listed as Homo sapiens)
chain: B1 chain with K321N
notes: Amicus single mutant hGCase R495H/K321N produced in S2 cells; Id; No. 2
B7: I5N: recombinant human β-glucocerebrosidase variant R495H/I5N, S2 cells; Seq. Id. No. 4 (protein, listed as Homo sapiens)
chain: B1 chain with I5N
notes: recombinant human β-glucocerebrosidase variant R495H/I5N, S2 cells; Id; No. 4
B8: M53T/P55T: recombinant human β-glucocerebrosidase variant R495H/M53T/P55T, S2 cells; Seq. Id. No. 7 (protein, listed as Homo sapiens)
chain: B1 chain with M53T, P55T
notes: recombinant human β-glucocerebrosidase variant R495H/M53T/P55T, S2 cells; Id; No. 7

Legend:
hGCase = assay: Inhibition of hGCase using conditurol-β-epoxide (CBE), IC50 determination; assay type: biochemical, human; settings: irreversible inhibitor conditurol-β-epoxide on the named hGCase variant; 25 nM protein, 10 min pre-incubation, 20 μM res-β-glc
Protocol: CBE is an irreversible inhibitor of glucocerebrosidases which covalently binds to the active site of the enzyme (Liou et al., 2006).
A stock solution of 100 mM CBE in H2Oultrapure was prepared. For IC50 determination, CBE concentrations ranging from 0.04-2500 μM were tested. Again, the final enzyme concentration was 25 nM. After adding the inhibitor, the enzyme was pre-incubated for 10 min before initializing the activity measurement by adding the substrate (20 μM).
IC50 evaluations were done in the same manner as described for IFG (see section above). The IC50 calculations were done using GraphPad Prism7 following equation 9.
To determine whether the active binding site of an enzyme is compromised or altered, IC50 values were calculated for active site inhibitor and compared. In this work, the natural occurring GCase inhibitor isofagomine (IFG) and conditurol-β-epoxide (CBE) were used. IFG is known as a reversible inhibitor, interacting with the active site of the GCase enzyme, whereas CBE is an irreversible inhibitor of GCase (Powe et al., 2006). The IC50 of an enzyme is defined as the concentration of an inhibitor, where the response, in this case the enzyme activity, is reduced by half (Kalliokoski et al., 2013). Both assays were conducted as described in section 2.5.6. The inhibitor profiles of M53T/P55T using IFG and CBE as well as the IC50 profiles of all residual mutants combined are shown in FIG. 4.
The raw data was plotted by transforming the applied IFG/CBE concentration to a logarithmic scale (x-axis, FIG. 4) and by normalizing the activity signal with highest signal of each data set to 100% (defined with apparent inhibitor concentration of 10-12 μM, equal to no inhibitor). IC50 values were calculated using GraphPad Prism7 following equation 9.

[1] = Determination of the kinetic parameters (Michaelis-Menten) with artificial substrate; assay type: biochemical; settings: for kcat: protein concentration used: 25 nM; for Km / Vmax: res-β-glc 4-500 μM, 25 nM protein
Protocol: The kinetic parameters were examined using the artificial substrate resorufin-β-glucopyranoside (Sigma-Aldrich). For the determination, final concentrations of substrate ranging from 4-500 μM were tested. The assay followed the activity assay instructions in section 2.3.5. 25 nM final protein concentration was used for each construct. The incubation time was set to 30 min to ensure measurements in the linear signal range. The kinetics were evaluated and plotted according to Michaelis-Menten (Cornish-Bowden, 2013; Johnson, 2015). KM, Vmax was calculated by GraphPad Prism7 applying the Michaelis-Menten fit equation provided by the program. The equation model follows: […]
with: • KM: Michaelis-Menten constant [μM] • Vmax: maximum velocity of reaction [μM/min]
The kinetic parameter kcat is defined as the catalytic constant, representing the turnover number of substrate to product per time unit (here per second) (Eisenthal et al., 2007). kcat can be calculated as follows: […]
with: • kcat: turnover number [min-1] • Vmax: maximum velocity of reaction [μM/min] • [E]tot.: total enzyme concentration [nM]
Another kinetic key parameter to describe the catalytic efficiency of enzymes is the parameter kcat/KM, measured in [μM−1*s−1] in this work (Eisenthal et al., 2007).
Determining enzyme kinetic key parameters gives solid information about the efficiency and efficacy of an enzyme and how certain mutations can impact its functionality. For the determination and comparison of the enzymatic performances, KM, Vmax and kcat as well as kcat/KM were calculated for the different hGCase variants, respectively (Eisenthal et al., 2007). The according assay was performed as described in section 2.5.5, all measured with the artificial substrate res-3-glc. KM and Vmax determination for representative mutant M53T/P55T was done applying the Michaelis-Menten curve fit (GraphPad Prism7; see equation 4) as shown in the following.
The kinetic raw data is depicted in FIG. 5 (A) with progression curves following pseudo first order in a linear measurement range with a good reproducibility and low variance. The slopes of the progression curves can be replotted, with velocities V [μM/min] plotted as a function of substrate concentration [S] applied, resulting in a typical course of a Michaelis-Menten curve (Cornish-Bowden, 2013; Johnson, 2015).

[2] = Heat inactivation at 55° C., residual GCase activity of purified protein; assay type: physicochemical; settings: for residual GCase activity after heat inactivation: 55° C. waterbath, 50 nM protein, initial activity = 100%; for residual activities after 5 and 10 min of incubation (in words): 55° C., compared to R495HS2
Protocol: For all further GCase characterization experiments including the activity assay, 20 μM substrate concentration, 30-40 min incubation time and protein concentrations ranging from 25-100 nM were set as final assay settings to ensure measurements in the linear range. The overall DMSO concentration within the assay was kept at 0.5% (v/v) or even below, since DMSO influences the fluorescent signal with higher concentrations (experimentally tested, data not shown; confirmed by (Urban et al., 2008). Therefore, GCase activity buffer+1% (v/v) DMSO was also used for dilutions (table 2.9). The plate reader SpectraMax i3 (Molecular Devices) including the analysis software SoftMax Pro 6.4 was used for all activity measurements within this work. The program settings were kept the same for all activity runs: kinetic run, measurement temperature: 37° C., PMT Gain: high; flashes per read: 6; read height: 0.73305 mm from plate.
Another approach to test the mutants for thermal stability is the irreversible heat inactivation at 55° C. (Futami et al., 2017; Zale & Klibanov, 1986). As initial screening to select for most promising candidates, this thermal stability approach was chosen (section 3.1.1). For this, supernatant samples of each construct were taken from the 30 ml S2 cell cultures, respectively (section 2.2). The protein concentration was not adjusted. The samples were incubated for 40 min in total at 55° C. (PCR Cycler Mastercycler gradient, Eppendorf) using PCR plates (FrameStar®96 well skirted PCR plate, 4titude Ltd.). Samples were taken after 5, 7, 10, 15, 20, 30 and 40 min for residual activity measurements. The activity assay was performed as described in section 2.3.5. The initial activity of each mutant was set to 100% before heating. Residual activities were calculated in regard to the initial activity. Data points were fitted using the one phase decay fit by GraphPad Prism7 following equation 3: […]
For the heat inactivation experiment of purified protein (see section 3.3.3), hGCase protein samples were prepared with a final concentration of 50 nM, diluted in hGCase activity buffer, pH 6.0 (table 2.9) and incubated for 5 and 10 minutes in the waterbath (Julabo 5A, Julabo) at 55° C.
The second approach was aimed to test residual GCase activity after thermal inactivation at a fixed temperature. With this additional approach, the focus was set on activity-based changes with increased incubation time (Futami et al., 2017; Zale & Klibanov, 1986). Here, samples were incubated for 5 and 10 minutes in the waterbath at 55° C. Residual GCase activities were measured with the initial activity set to 100% (before heating). FIG. 2 depicts calculated residual activities for tested mutants after incubation.

| IC50 (hGCase) | Molecule | kcat [1] [s⁻¹] | Km [1] | Vmax [1] | residual GCase activity after heat inactivation ([2]; 10 min incubation) [%] | residual activities after 5 and 10 min of incubation (in words) [2] | residual GCase activity after heat inactivation ([2]; 5 min incubation) [%] |
| --- | --- | --- | --- | --- | --- | --- | --- |
| 55 ± 3 µM | B1 | 0.05 | 189 ± 45.5 µM | 0.08 ± 0.01 µM/min and 0.08 µM/min | – | – | – |
| 106 µM | B2 | 0.11 | 143 µM | 0.17 ± 0.01 µM/min and 0.17 µM/min | ~27 | – | – |
| 35 µM | B3 | 0.09 | 158 µM and 156 µM | 0.13 µM/min | – | significantly higher residual activities | – |
| 60 ± 3 µM | B4 | 0.09 | 131 µM | 0.14 µM/min | – | rapidly lose its initial activity but retained residual activity with further incubation | – |
| 60 ± 3 µM | B5 | 0.07 | 96.6 µM | 0.11 µM/min | ~27 | – | – |
| 28 µM | B6 | 0.09 | 131 µM | 0.14 µM/min | – | significantly higher residual activities | – |
| – | B7 | 0.09 | 118 µM | 0.14 µM/min | 16 | – | 31 |
| ~76 µM and 76 µM | B8 | 0.09 | 100 ± 15.8 µM | 0.13 ± 0.01 µM/min and 0.13 µM/min | 27 | – | 65 |
